Tests used:
c-Src SH2 = test: SH2 binding enrichment of the phosphorylated peptide, bacterial display (enrichment ratio); higher = better substrate or ligand; peptides without Tyr show the background
SHP2-C SH2 = test: as above
Grb2 SH2 = Grb2 SH2 (UniProt P62993); test: as above
FGFR3 = FGFR3 (UniProt P22607); test: phosphorylation enrichment, bacterial display (enrichment ratio); higher = better substrate or ligand; peptides without Tyr show the background
Hck = Hck (UniProt P08631); test: as above
c-Src = test: as above
Fyn = Fyn (UniProt P06241); test: as above
AncSZ = test: as above
Fer (mouse) = test: as above
c-Abl (mouse) = test: as above
MERTK = MERTK (UniProt Q12866); test: as above
Fes = Fes (UniProt P07332); test: as above
EPHB1 = EPHB1 (UniProt P54762); test: as above
Jak2 = Jak2 (UniProt O60674); test: as above
FGFR1 = FGFR1 (UniProt P11362); test: as above
EPHB2 = EPHB2 (UniProt P29323); test: as above
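Wherever SH2 binding enrichment of the phosphorylated peptide, bacterial display is given: peptide library displayed on the E. coli surface as eCPX fusions, selected cells deep-sequenced, score is each peptide's frequency after selection divided by its frequency in the input.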
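Wherever phosphorylation enrichment, bacterial display is given: 11-residue human phosphosite peptides and single-mutation variants displayed on the E. coli surface, counted by deep sequencing, each peptide's frequency after selection divided by its frequency in the unselected input library; frequency after pTyr selection over input frequency; kinase dosed for 20-30% of maximal phosphorylation in three min.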

Fes, sequence (P07332 whole entry, looked up): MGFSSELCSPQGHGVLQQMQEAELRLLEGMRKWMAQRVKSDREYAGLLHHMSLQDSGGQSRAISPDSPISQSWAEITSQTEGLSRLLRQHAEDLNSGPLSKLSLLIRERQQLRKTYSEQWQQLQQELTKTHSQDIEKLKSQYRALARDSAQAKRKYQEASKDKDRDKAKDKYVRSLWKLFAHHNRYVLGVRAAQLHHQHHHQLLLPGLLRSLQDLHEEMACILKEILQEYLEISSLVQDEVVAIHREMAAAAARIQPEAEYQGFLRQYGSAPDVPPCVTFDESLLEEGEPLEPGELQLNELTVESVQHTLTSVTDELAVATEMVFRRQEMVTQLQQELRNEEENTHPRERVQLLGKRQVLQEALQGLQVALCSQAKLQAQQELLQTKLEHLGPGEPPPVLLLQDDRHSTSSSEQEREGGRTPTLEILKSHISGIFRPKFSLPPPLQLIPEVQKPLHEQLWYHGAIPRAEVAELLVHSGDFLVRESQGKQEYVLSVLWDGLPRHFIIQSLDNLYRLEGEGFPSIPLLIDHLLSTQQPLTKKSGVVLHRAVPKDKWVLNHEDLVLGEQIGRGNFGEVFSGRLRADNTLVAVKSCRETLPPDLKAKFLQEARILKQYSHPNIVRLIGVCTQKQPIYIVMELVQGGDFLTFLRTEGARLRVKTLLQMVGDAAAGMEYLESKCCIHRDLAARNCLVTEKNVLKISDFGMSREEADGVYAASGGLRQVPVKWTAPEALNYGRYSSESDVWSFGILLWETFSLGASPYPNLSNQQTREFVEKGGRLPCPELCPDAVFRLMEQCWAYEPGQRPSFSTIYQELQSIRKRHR
Hck, sequence (P08631 whole entry, looked up): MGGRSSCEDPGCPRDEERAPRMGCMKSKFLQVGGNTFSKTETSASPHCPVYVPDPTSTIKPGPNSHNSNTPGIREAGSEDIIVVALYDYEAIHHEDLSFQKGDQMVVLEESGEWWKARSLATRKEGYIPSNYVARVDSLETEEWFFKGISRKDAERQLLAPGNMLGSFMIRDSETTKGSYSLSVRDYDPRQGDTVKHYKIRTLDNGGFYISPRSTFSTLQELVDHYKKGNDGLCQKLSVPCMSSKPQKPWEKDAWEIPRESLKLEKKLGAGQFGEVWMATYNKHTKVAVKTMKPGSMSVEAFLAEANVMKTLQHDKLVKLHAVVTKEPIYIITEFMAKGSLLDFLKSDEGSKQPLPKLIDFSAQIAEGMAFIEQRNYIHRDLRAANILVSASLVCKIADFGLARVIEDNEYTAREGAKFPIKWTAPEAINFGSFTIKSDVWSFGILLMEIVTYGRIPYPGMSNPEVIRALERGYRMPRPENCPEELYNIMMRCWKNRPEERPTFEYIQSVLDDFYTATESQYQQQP
MERTK, sequence (Q12866 whole entry, looked up): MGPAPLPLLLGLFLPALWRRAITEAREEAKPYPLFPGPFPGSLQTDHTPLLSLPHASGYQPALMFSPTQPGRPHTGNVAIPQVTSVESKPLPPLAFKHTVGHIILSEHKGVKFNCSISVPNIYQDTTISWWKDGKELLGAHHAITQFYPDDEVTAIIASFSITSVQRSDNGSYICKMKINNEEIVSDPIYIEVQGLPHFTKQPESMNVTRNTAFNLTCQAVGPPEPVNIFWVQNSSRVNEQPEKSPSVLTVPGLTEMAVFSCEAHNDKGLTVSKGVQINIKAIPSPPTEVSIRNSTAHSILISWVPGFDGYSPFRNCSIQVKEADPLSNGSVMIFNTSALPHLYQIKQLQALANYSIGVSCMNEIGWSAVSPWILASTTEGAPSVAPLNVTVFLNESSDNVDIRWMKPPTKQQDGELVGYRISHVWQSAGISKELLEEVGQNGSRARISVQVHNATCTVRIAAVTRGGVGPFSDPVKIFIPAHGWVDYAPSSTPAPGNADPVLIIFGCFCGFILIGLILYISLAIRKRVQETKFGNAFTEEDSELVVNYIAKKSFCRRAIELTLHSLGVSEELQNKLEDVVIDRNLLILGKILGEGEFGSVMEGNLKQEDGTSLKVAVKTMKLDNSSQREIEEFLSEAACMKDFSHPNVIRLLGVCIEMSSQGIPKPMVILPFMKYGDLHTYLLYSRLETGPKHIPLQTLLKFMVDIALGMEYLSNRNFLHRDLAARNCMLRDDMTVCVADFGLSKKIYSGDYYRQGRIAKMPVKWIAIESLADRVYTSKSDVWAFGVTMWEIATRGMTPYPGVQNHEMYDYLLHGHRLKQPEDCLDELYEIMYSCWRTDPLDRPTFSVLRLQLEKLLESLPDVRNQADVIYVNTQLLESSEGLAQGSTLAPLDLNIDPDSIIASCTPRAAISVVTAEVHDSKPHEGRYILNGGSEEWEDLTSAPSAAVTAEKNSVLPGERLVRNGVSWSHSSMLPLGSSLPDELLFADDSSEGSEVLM
FGFR3, sequence (P22607 whole entry, looked up): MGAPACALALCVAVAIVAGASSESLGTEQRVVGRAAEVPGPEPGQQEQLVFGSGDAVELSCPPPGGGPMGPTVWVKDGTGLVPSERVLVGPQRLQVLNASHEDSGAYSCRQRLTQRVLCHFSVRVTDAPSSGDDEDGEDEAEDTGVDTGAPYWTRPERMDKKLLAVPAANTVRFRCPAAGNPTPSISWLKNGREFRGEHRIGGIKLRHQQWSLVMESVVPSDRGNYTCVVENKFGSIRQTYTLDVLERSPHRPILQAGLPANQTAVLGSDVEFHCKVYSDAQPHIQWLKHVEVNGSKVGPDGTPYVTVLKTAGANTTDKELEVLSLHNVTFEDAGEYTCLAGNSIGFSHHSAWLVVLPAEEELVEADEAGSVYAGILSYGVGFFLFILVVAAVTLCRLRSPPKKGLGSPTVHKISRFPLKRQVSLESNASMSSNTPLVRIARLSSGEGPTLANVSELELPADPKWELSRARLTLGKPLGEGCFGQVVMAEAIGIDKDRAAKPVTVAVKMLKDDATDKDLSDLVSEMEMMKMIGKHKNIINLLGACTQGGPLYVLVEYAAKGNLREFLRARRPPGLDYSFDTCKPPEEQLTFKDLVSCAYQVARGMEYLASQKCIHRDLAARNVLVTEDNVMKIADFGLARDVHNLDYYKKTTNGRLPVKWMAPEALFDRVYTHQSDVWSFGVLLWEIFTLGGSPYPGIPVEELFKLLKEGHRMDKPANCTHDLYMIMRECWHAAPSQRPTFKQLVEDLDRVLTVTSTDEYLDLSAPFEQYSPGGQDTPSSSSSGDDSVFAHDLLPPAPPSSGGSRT
FGFR1, sequence (P11362 whole entry, looked up): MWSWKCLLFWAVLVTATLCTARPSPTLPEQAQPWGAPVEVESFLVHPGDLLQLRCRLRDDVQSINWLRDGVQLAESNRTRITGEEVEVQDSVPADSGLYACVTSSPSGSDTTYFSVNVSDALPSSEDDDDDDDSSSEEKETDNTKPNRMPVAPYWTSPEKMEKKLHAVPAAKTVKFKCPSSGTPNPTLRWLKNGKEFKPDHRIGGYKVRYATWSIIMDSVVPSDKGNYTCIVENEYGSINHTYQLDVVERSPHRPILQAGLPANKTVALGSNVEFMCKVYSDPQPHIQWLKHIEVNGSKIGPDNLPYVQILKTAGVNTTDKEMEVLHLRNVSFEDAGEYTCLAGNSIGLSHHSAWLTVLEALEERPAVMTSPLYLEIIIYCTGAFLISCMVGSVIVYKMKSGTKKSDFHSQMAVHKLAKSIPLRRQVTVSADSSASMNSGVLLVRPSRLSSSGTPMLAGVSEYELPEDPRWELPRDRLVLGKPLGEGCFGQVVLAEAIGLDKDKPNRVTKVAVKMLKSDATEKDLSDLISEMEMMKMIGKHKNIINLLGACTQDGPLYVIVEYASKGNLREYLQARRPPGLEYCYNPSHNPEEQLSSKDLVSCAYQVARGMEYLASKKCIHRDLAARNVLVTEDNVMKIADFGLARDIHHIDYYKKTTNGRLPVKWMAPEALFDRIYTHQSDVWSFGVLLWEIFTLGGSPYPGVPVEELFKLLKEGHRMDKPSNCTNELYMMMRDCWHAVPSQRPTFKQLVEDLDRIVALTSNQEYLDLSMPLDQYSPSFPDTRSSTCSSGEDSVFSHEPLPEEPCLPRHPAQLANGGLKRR
Fyn, sequence (P06241 whole entry, looked up): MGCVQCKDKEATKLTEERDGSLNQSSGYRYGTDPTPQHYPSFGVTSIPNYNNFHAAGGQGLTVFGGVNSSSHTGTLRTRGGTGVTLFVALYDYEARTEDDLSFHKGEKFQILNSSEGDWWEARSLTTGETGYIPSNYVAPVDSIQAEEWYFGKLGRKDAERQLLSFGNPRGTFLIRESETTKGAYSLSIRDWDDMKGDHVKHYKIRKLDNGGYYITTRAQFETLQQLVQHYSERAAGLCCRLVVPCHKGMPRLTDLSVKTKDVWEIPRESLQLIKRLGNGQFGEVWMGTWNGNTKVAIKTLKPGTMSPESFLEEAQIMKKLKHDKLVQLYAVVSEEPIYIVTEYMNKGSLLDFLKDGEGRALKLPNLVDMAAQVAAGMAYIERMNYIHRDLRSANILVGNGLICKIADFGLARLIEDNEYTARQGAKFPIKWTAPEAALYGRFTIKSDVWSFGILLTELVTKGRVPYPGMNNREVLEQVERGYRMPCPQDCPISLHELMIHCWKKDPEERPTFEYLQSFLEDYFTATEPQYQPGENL

Sequence	SH2 binding enrichment (c-Src SH2)	SH2 binding enrichment (SHP2-C SH2)	SH2 binding enrichment (Grb2 SH2)	phosphorylation enrichment (FGFR3)	phosphorylation enrichment (Hck)	phosphorylation enrichment (c-Src)	phosphorylation enrichment (Fyn)	phosphorylation enrichment (AncSZ)	phosphorylation enrichment (Fer (mouse))	phosphorylation enrichment (c-Abl (mouse))	phosphorylation enrichment (MERTK)	phosphorylation enrichment (Fes)	phosphorylation enrichment (EPHB1)	phosphorylation enrichment (Jak2)	phosphorylation enrichment (FGFR1)	phosphorylation enrichment (EPHB2)
EGQKIYIDDNS [PIP4K2A_Y246_N251S]	0.538	0.656	0.661	0.645	0.465	0.526	0.53	0.862	0.459	0.689	0.461	1.09	0.499	0.886	0.446	0.549
SQAPGYSYTAA [CYCS_Y47_G42S]	1.07	0.631	0.763	0.43	0.422	0.594	0.454	0.637	0.499	0.708	0.45	0.666	0.466	0.765	0.593	0.408
VLTSKYLGGGG [HBA1_Y141_R142L]	0.456	0.695	0.824	0.308	0.32	0.334	0.275	0.382	0.264	0.375	0.347	0.461	0.292	0.444	0.448	0.326
EEEFFYEKAIL [BCCIP_Y257]	0.655	0.685	0.981	0.895	0.811	0.89	0.633	1.93	5.34	1.1	0.847	1.55	0.622	1.34	0.671	0.648
LDPDSYNMFEN [FOXC1_Y159]	0.575	0.504	0.667	0.855	0.465	0.579	0.531	1.38	0.527	0.74	0.635	1.14	0.637	1.44	0.675	0.865
PSELYYSKISP [SMG1_Y2254_G2258S]	4.6	2.66	1.18	8.81	17.9	8.68	6.66	2.87	23.8	4.3	23.1	2.15	6.25	6.46	11.7	3.13
IKIMGYSIRTI [IDS_Y490]	0.816	1.02	1.4	0.657	0.457	0.571	0.452	0.991	0.478	0.822	0.455	1.01	0.494	0.862	0.424	0.52
NVKGIYAVADV [GSR_Y371_G374A]	1.44	0.599	0.826	0.687	3.79	3.12	3.67	0.977	2.06	16.5	6.08	0.82	2.06	0.678	0.506	3.77
RIVTTYIWERE [DNM2_Y463_R465W]	0.909	0.846	1.16	0.862	0.619	0.405	0.712	1.82	0.538	0.745	0.403	1.31	0.526	0.989	0.595	0.455
TYACSYTPVKA [FLNB_Y708]	1.54	7.09	0.85	0.627	1.32	2.4	1.25	0.991	0.78	1.78	3.02	1.06	0.567	1.24	0.877	0.868
MSSLYYANTLF [HOXB7_Y6]	1.24	0.739	2.87	5.82	5.94	4.4	4.32	1.32	5.33	8.46	10.8	1.01	10.7	3.08	6.15	12.8
YKTPTYPYLLP [PLD2_Y578]	1.68	0.521	1.04	0.786	0.481	0.625	0.525	0.958	0.543	0.943	0.589	0.764	0.459	0.92	0.794	0.454
SPLEVYVDKSQ [FLNA_Y373_F370L]	0.477	0.585	0.859	0.74	0.523	0.508	0.469	1.2	0.521	0.723	0.47	1.25	0.653	1.14	0.631	0.716
HFPDVYAREQL [ALX3_Y181_YF]	0.56	0.682	0.832	0.514	0.722	0.91	0.588	0.713	0.561	0.667	0.408	1.04	0.619	0.616	0.55	0.703
FGAHKYHPLPV [OAT_Y55_N54K_YF]	1.31	1.26	1.46	0.544	0.474	0.377	0.309	0.497	0.441	0.443	0.376	0.677	0.375	0.424	0.397	0.468
DNQYAYLKAII [HNF4A_Y288_E285Q]	0.531	0.826	0.769	1.91	1.4	0.551	0.456	1.19	0.64	3.75	1.58	1.09	0.562	1.11	2.72	0.549
YLAATYPTVGQ [NF1_Y2508]	0.515	0.97	0.796	0.51	0.454	0.407	0.455	0.677	0.357	0.518	0.73	0.753	0.357	1.08	0.582	0.472
KGRGEYSAIKA [PRKCD_Y374_F375S]	1.81	0.933	0.974	0.443	0.811	0.625	0.412	0.553	0.45	0.761	0.603	0.864	0.434	0.636	0.393	0.366
SVVVPYEPPEA [TP53_Y220_V225A]	0.795	0.675	0.967	0.738	0.54	0.574	0.483	1.28	0.593	0.859	0.54	1.19	0.61	1.1	0.496	0.536
WASGIYYVPKG [APBB1IP_Y340_R335W]	0.883	0.959	1.21	7.15	10.1	6.92	10	3.2	5.91	31.1	11.5	1.05	15.3	8.67	8.05	17
SGIFQYSIAKF [FOXL2_Y83_I84S_YF]	1.11	1.5	0.947	0.638	0.569	0.5	0.478	0.889	0.467	0.573	0.469	0.969	0.555	0.756	0.64	0.525
AASTDYNKRGD [PDHA1_Y242_Y243N]	0.567	0.574	0.754	0.451	0.509	0.618	0.37	0.578	0.386	0.67	0.453	0.505	0.453	0.515	0.452	0.313

Continued, in another order:

SH2 binding enrichment (c-Src SH2)	SH2 binding enrichment (SHP2-C SH2)	SH2 binding enrichment (Grb2 SH2)	Sequence	phosphorylation enrichment (FGFR3)	phosphorylation enrichment (Hck)	phosphorylation enrichment (c-Src)	phosphorylation enrichment (Fyn)	phosphorylation enrichment (AncSZ)	phosphorylation enrichment (Fer (mouse))	phosphorylation enrichment (c-Abl (mouse))	phosphorylation enrichment (MERTK)	phosphorylation enrichment (Fes)	phosphorylation enrichment (EPHB1)	phosphorylation enrichment (Jak2)	phosphorylation enrichment (FGFR1)	phosphorylation enrichment (EPHB2)
0.83	0.967	0.928	FVSIVYSDSGE [TSC2_Y1650_N1651S]	0.717	0.532	0.591	0.506	0.766	0.403	0.529	0.37	1.16	0.439	0.952	0.444	0.582
0.518	0.875	0.897	KAWTIYHPEDS [ZBP1_Y165_R166H]	0.787	0.569	0.833	0.646	0.949	0.482	0.723	0.474	1.02	0.559	0.871	0.432	0.547
0.949	0.768	1.36	GCKNRYDKDKP [THAP1_Y14]	0.804	0.596	0.591	0.535	0.655	0.745	0.752	0.482	0.928	0.506	0.691	0.557	0.474
0.442	0.676	0.709	LTQRTYMSENN [GPAA1_Y49_A54N]	1.09	0.703	0.549	0.479	1.11	0.867	1.01	0.87	1.46	0.783	0.67	1.13	0.879
0.579	0.859	0.851	DSIRDYEDGME [CLNS1A_Y214]	0.729	0.612	0.521	0.647	1.29	0.49	0.844	0.599	1.26	0.749	1.66	0.628	0.784
0.478	0.758	0.971	WAKPEYTGGFK	0.462	0.364	0.417	0.411	0.544	0.332	0.743	0.397	0.732	0.438	0.574	0.48	0.468
0.421	0.49	0.661	IDAVCYYRMEN [NPHS2_Y194_I192V]	3.39	0.862	2.48	0.888	1.96	0.729	1.22	0.845	1.51	0.865	4.36	3.5	0.745
10	0.649	0.646	YEAMEYLESKQ [BTK_Y511_C506Y]	1.04	0.805	0.568	0.654	1.84	3.06	0.836	3.12	1.28	2.15	1.14	1.15	0.843
0.618	1.72	0.676	SEKVVYQRFTE [NCF1_Y41_R42Q]	0.542	0.959	1.93	0.889	0.675	0.508	1.07	0.379	0.763	0.457	0.931	0.574	0.394
0.874	1.15	1.22	NPQKSYLIRLY [WAS_Y83_F84L]	0.65	0.47	0.374	0.408	0.827	0.395	0.522	0.388	0.989	0.603	0.74	0.471	0.49
1.28	2.15	1.27	HFPFQYHRQLY [F12_Y53]	0.865	0.656	0.471	0.59	1.03	0.725	0.508	0.566	1.28	0.583	0.723	0.449	0.572

Reference: the supplement of paper PMC10065799, “High-throughput profiling of sequence recognition by tyrosine kinases and SH2 domains using bacterial peptide display” (eLife, 2023)
